The text below walks through data of paper PMC9614721, “Polyvalent Glycan Quantum Dots as a Multifunctional Tool for Revealing Thermodynamic, Kinetic, and Structural Details of Multivalent Lectin–Glycan Interactions” (ACS Applied Materials & Interfaces, 2022).

For series [1], the target named is DC-SIGN with its C-terminal 16 amino acids truncated, soluble extracellular segment, Q274C, labeled with Atto-594 (UniProt Q9NNX6). Briefly: dynamic light scattering; purified lectins in solution; hydrodynamic diameters ~14 nm; identity also checked by HRMS and UV-vis spectroscopy.
Series [2] concerns the molecule itself. Described as above.

“DC-SIGN with its C-terminal 16 amino acids truncated, soluble extracellular segment, Q274C, labeled with Atto-594 (from UniProt Q9NNX6 59-404) (domain or fragment)”: in series [1], the stoichiometry N came out at 4.

B1: DC-SIGN, soluble extracellular segment, Q274C, labeled with Atto-594 (domain or fragment, UniProt Q9NNX6 59-404, looked up)
chain: QVSKVPSSISQEQSRQDAIYQNLTQLKAAVGELSEKSKLQEIYQELTQLKAAVGELPEKSKLQEIYQELTRLKAAVGELPEKSKLQEIYQELTWLKAAVGELPEKSKMQEIYQELTRLKAAVGELPEKSKQQEIYQELTRLKAAVGELPEKSKQQEIYQELTRLKAAVGELPEKSKQQEIYQELTQLKAAVERLCHPCPWEWTFFQGNCYFMSNSCRNWHDSITACKEVGAQLVVIKSAEEQNFLQLQSSRSNRFTWMGLSDLNQEGTWQWVDGSPLLPSFKQYWNRGEPNNVGEEDCAEFSGNGWNDDKCNLAKFWICKKSAASCSRDEEQFLSPAPATPNPPPA
modifications: maleimide-modified Atto-594 dye on the cysteine introduced at Q274 (labeling efficiency ~85% per monomer)
notes: DC-SIGN, soluble extracellular segment; also called dendritic-cell-specific intercellular adhesion molecule-3-grabbing nonintegrin; source: expressed, purified
Consider B1, for which the “stoichiometry N” value in series [2] worked out at 4.

B2: DC-SIGNR, soluble extracellular segment, R287C, labeled with Atto-594 (domain or fragment, UniProt Q9H2X3 71-399, looked up)
chain: QVSKVPSSLSQEQSEQDAIYQNLTQLKAAVGELSEKSKLQEIYQELTQLKAAVGELPEKSKLQEIYQELTRLKAAVGELPEKSKLQEIYQELTRLKAAVGELPEKSKLQEIYQELTRLKAAVGELPEKSKLQEIYQELTELKAAVGELPEKSKLQEIYQELTQLKAAVGELPDQSKQQQIYQELTDLKTAFERLCRHCPKDWTFFQGNCYFMSNSQCNWHDSVTACQEVRAQLVVIKTAEEQNFLQLQTSRSNRFSWMGLSDLNQEGTWQWVDGSPLSPSFQRYWNSGEPNNSGNEDCAEFSGSGWNDNRCDVDNYWICKKPAACFRDE
modifications: maleimide-modified Atto-594 dye on the cysteine introduced at R287 (labeling efficiency ~85% per monomer)
notes: DC-SIGNR, soluble extracellular segment; also called a DC-SIGN related lectin found on endothelial cells; source: expressed, purified
For B2, the “stoichiometry N” value in series [2] amounted to 4.
